Reference: article PMC2838799, “Aptamer Antagonists of Myelin-Derived Inhibitors Promote Axon Growth”

Target: T1, Nogo-66 receptor (NgR)/Fc chimera (rat, UniProt Q99M75 27-447)
T1 sequence: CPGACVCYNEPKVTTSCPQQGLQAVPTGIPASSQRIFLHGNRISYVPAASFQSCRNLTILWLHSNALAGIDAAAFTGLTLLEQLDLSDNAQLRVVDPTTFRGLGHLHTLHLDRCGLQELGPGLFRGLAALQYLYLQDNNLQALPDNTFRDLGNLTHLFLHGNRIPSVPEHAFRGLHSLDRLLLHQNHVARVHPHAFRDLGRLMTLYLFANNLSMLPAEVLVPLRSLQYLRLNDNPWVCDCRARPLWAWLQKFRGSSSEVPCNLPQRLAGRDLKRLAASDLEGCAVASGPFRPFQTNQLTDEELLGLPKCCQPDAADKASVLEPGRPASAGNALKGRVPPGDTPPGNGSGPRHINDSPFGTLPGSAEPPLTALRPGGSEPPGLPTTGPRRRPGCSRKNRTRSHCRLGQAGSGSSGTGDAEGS
Assay: filter binding; three-point estimate, data not shown; Selection buffer PBS pH 7.4, 3 mM MgCl2; RNA 0.5 nM, NgR/Fc 12.5-500 nM for Kd; competition 20 min at 37 C
Settings: protein: commercial; tags: human IgG Fc fusion; chain copies: 2; label: 32P

B1: Clone 6 (ssRNA)
RNA: GGGUUUACCUAGGUGUAGAUGCUCUCUCUAUUUCAUUCGUAGGCUAUUGGUGCCGCAAAUACUAGCUUUACGAAAGUGACGUCUGAACUGCUUCGAAAA
- binding result: binds
